{"source": "IntAct's records for PubMed 17412836", "parents": {"B1": {"name": "Protein Nef (Human immunodeficiency virus type 1 group M subtype B (isolate Lai)), Q9QPN3 (parent)", "chain": "MGGKWSKSSVVGWPAVRERMRRAEPAADGVGAVSRDLEKHGAITSSNTAATNADCAWLEAQEEEEVGFPVTPQVPLRPMTYKAAVDLSHFLKEKGGLEGLIHSQRRQDILDLWIYHTQGYFPDWQNYTPEPGVRYPLTFGWCYKLVPVEPDKVEEANKGENTRLLHPVSLHGMDDPEREVLEWRFDSRLAFHHVARELHPEY", "partner": "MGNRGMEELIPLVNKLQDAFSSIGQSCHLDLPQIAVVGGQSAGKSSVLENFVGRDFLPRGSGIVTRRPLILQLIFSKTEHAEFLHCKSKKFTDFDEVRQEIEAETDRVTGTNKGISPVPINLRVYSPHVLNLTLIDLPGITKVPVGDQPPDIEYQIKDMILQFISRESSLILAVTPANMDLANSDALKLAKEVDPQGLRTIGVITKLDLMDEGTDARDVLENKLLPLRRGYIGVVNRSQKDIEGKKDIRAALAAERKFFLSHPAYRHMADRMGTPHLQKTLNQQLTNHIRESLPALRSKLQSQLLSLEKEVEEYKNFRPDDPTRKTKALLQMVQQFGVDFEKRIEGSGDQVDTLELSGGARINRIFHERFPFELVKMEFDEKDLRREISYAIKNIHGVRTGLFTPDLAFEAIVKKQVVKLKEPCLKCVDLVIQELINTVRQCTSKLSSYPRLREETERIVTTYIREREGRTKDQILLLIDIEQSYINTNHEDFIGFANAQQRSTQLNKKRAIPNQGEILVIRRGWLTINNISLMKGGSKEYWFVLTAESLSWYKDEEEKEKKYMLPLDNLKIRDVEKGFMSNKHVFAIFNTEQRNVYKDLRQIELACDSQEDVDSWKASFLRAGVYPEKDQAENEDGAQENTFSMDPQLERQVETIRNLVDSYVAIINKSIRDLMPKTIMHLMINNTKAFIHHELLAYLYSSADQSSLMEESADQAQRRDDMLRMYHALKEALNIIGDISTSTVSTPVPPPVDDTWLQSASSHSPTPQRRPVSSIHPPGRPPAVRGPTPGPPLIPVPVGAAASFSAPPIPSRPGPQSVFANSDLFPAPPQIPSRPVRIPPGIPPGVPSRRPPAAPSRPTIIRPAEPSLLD"}}}
{"variants_of": "B1", "settings": "with dyn2_human DNM2, P50570"}
{"variant": "D123A", "effect of a mutation on the interaction": "decreasing interaction strength"}
{"variant": "L112A", "effect of a mutation on the interaction": "decreasing interaction strength"}
{"variant": "G2A;G3A", "effect of a mutation on the interaction": "disrupting interaction strength"}
{"variant": "F121A", "effect of a mutation on the interaction": "decreasing interaction strength"}
{"variant": "F121A;D123A", "effect of a mutation on the interaction": "disrupting interaction strength"}
